Results reported in US20210063414A1, “METHODS FOR PREVENTING AND/OR TREATING BONE LOSS CONDITIONS BY MODULATING IRISIN” (Dana-Farber Cancer Institute, Inc., priority 2018, published 2021).

Legend:
[1] = target: T1, CD81 antigen (Cd81) of MLO-Y4 cells (mouse) (UniProt P35762); assay: DTSSP cross-linking on MLO-Y4 cells, his-tag pull-down, TMT mass spectrometry; adipsin (control) channel
T1 sequence (looked up): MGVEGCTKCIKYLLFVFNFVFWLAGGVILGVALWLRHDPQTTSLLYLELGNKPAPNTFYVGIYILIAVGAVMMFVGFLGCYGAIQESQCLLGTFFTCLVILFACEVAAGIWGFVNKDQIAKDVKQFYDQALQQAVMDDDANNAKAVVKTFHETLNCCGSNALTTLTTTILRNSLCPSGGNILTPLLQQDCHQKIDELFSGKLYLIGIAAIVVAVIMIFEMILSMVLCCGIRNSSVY

[2] = target: Fibronectin type III domain-containing protein 3B (Fndc3b) of MLO-Y4 cells (mouse) (UniProt Q6NWW9); assay: as above
Chain of Fibronectin type III domain-containing protein 3B (Fndc3b) of MLO-Y4 cells (mouse) (Q6NWW9 whole entry, the tested form may be a part): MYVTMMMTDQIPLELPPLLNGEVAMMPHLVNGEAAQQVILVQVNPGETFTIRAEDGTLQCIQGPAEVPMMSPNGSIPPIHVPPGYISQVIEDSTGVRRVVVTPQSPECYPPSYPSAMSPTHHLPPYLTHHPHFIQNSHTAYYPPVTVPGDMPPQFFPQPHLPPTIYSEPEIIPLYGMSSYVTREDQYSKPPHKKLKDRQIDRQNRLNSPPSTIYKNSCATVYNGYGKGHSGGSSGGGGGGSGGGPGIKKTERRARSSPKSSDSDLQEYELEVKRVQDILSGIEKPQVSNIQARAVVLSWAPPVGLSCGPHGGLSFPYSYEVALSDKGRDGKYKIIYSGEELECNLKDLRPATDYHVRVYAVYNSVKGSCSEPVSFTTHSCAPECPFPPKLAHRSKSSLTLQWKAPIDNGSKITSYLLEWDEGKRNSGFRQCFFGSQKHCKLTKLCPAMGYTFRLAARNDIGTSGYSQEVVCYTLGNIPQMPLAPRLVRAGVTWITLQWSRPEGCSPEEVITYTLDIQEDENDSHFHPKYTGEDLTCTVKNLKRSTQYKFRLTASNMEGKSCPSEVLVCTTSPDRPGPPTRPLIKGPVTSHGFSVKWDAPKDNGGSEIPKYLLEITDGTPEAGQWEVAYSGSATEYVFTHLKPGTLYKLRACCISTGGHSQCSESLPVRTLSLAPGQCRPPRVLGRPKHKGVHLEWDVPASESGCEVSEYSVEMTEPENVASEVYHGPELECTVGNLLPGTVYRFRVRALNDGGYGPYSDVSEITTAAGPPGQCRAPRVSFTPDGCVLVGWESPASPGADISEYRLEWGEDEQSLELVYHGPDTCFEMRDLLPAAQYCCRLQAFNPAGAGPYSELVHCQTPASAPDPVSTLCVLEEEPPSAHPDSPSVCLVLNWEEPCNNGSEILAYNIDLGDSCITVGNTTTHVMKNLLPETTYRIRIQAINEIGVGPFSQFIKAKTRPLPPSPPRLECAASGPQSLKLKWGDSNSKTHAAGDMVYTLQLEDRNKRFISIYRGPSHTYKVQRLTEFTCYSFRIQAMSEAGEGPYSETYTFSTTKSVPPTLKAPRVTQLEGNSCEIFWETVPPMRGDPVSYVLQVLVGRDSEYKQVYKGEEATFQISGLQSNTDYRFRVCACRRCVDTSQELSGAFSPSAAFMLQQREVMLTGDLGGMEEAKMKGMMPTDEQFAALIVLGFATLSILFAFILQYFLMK

[3] = target: T2, Integrin alpha-V (Itgav) of MLO-Y4 cells (mouse) (UniProt P43406); assay: as above
T2 sequence (looked up): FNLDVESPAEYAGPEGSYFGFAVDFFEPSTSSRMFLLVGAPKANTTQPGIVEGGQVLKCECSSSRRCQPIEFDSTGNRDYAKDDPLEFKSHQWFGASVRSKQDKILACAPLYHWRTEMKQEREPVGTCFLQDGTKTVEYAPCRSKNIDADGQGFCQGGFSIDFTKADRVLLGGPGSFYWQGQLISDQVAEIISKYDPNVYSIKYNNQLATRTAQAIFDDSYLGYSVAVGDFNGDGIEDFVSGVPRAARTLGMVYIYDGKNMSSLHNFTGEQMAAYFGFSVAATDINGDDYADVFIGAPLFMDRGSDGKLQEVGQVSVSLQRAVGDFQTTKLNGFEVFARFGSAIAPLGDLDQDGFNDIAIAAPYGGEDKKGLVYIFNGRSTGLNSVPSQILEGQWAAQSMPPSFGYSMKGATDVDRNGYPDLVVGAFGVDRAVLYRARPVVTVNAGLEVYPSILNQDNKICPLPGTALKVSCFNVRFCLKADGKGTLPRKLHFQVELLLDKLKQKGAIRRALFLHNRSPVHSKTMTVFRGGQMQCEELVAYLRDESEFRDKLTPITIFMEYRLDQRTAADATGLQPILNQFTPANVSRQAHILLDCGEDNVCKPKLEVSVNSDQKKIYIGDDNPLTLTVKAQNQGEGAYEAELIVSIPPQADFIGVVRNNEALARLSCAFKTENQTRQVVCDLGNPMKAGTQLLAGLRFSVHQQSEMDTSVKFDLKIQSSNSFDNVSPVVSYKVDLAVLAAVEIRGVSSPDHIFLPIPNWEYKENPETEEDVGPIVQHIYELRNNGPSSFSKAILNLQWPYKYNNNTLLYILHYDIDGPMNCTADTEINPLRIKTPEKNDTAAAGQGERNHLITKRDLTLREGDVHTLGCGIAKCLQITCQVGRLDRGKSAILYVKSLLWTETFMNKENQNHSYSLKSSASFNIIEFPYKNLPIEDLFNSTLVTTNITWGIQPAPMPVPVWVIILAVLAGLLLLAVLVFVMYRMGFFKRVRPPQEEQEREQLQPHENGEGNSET

[4] = target: Integrin beta-1 (Itgb1) of MLO-Y4 cells (mouse) (UniProt P09055); assay: as above
Chain of Integrin beta-1 (Itgb1) of MLO-Y4 cells (mouse) (P09055 21-798): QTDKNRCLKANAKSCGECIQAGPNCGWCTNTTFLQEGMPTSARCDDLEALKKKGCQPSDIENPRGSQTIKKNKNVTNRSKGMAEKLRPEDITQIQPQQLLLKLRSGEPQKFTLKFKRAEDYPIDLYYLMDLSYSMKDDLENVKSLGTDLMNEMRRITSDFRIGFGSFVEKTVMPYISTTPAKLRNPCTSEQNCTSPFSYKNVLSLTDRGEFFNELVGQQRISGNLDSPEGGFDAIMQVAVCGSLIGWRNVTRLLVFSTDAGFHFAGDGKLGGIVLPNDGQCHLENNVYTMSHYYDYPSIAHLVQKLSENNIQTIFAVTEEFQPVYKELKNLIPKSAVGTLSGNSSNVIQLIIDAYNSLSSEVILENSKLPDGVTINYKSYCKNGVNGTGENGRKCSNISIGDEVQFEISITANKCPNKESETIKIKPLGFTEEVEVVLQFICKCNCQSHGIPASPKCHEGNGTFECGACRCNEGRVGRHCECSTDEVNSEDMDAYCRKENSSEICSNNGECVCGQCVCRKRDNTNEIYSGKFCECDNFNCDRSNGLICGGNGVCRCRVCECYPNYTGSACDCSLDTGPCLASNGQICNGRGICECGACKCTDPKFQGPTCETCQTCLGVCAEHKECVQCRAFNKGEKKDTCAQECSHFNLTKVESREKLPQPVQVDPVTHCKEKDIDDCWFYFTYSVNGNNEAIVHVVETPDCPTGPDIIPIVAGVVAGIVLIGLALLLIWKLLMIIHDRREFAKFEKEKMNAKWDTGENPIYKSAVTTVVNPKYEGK

[5] = target: T3, Integrin beta-5 (Itgb5) of MLO-Y4 cells (mouse) (UniProt O70309); assay: as above
T3 sequence (looked up): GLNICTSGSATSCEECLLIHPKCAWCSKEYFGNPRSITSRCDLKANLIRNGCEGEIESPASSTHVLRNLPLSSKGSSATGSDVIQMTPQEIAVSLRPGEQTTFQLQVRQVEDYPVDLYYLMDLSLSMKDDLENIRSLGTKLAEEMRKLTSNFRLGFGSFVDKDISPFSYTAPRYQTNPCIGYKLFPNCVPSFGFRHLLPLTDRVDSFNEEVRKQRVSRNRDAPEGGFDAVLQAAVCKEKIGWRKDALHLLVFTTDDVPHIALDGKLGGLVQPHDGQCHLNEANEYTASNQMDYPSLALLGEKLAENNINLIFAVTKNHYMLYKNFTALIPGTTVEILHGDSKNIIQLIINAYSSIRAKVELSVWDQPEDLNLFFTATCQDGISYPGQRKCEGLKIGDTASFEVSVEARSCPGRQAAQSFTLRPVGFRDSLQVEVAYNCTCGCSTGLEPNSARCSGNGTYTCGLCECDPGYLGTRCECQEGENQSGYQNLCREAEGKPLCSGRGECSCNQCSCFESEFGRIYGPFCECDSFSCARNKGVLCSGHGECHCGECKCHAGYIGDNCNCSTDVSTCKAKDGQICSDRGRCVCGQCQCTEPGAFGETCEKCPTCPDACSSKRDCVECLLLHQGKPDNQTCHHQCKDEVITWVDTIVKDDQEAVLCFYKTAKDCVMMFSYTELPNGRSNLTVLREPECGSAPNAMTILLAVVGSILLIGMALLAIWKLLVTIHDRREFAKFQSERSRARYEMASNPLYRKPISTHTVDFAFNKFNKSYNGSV

[6] = target: T4, Membrane magnesium transporter 1 (Mmgt1) of MLO-Y4 cells (mouse) (UniProt Q8K273); assay: as above
T4 sequence (looked up): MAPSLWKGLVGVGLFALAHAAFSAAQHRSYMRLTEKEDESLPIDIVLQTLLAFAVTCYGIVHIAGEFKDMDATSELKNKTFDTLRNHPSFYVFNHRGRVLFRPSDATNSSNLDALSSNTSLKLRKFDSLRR

[7] = target: Protocadherin alpha-4 (Pcdha4) of MLO-Y4 cells (mouse) (UniProt O88689); assay: as above
Chain of Protocadherin alpha-4 (Pcdha4) of MLO-Y4 cells (mouse) (O88689 other isoform, or with tags, fused parts or gaps): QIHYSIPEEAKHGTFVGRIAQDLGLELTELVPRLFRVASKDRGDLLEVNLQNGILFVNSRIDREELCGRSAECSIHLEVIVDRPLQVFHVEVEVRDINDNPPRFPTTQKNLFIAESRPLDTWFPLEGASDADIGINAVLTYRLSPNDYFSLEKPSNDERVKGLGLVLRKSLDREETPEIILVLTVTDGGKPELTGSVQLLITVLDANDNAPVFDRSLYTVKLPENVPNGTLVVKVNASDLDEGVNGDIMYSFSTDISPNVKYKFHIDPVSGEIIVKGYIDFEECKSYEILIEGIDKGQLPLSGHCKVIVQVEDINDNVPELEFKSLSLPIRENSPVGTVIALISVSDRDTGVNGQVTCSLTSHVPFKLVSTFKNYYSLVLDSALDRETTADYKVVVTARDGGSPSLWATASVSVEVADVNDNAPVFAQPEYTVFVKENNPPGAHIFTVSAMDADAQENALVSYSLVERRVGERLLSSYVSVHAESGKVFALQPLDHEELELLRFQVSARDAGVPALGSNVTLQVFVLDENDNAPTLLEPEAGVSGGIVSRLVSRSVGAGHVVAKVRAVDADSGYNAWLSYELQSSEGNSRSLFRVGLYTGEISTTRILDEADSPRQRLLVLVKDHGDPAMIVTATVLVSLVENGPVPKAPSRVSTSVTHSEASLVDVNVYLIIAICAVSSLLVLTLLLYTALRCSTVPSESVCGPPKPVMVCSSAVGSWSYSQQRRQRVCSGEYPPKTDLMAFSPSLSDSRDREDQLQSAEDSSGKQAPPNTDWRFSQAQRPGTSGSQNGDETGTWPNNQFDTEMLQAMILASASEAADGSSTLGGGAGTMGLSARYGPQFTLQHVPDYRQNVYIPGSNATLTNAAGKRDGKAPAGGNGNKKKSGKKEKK

[8] = target: T1, CD81 antigen (Cd81) of MLO-Y4 cells (mouse); assay: DTSSP cross-linking on MLO-Y4 cells, his-tag pull-down, TMT mass spectrometry; irisin channel
[9] = target: Fibronectin type III domain-containing protein 3B (Fndc3b) of MLO-Y4 cells (mouse) (UniProt Q6NWW9); assay: as above
[10] = target: Membrane magnesium transporter 1 (Mmgt1) of MLO-Y4 cells (mouse) (UniProt Q8K273); assay: as above
[11] = target: Protocadherin alpha-4 (Pcdha4) of MLO-Y4 cells (mouse) (UniProt O88689); assay: as above
[12] = target: T1, CD81 antigen (Cd81) of MLO-Y4 cells (mouse); assay: DTSSP cross-linking of his-tag ligand on MLO-Y4 cells, his-tag pull-down, TMT quantitative mass spectrometry; ratio to his-tag adipsin control
[13] = target: Fibronectin type III domain-containing protein 3B (Fndc3b) of MLO-Y4 cells (mouse) (UniProt Q6NWW9); assay: as above
[14] = target: Membrane magnesium transporter 1 (Mmgt1) of MLO-Y4 cells (mouse) (UniProt Q8K273); assay: as above
[15] = target: Protocadherin alpha-4 (Pcdha4) of MLO-Y4 cells (mouse) (UniProt O88689); assay: as above

Chain of His-tag adipsin (R&D Systems, Cat. # AF1824-SP) (P00746 26-253): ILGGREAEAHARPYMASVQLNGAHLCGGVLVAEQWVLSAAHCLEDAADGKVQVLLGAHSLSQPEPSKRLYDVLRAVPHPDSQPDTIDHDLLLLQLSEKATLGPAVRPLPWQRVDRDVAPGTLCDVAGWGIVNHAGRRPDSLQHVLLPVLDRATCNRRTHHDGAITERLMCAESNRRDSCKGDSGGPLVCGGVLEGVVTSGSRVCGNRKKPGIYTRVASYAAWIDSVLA

| summed signal-to-noise value for TMT channel [1] | summed signal-to-noise value for TMT channel [2] | summed signal-to-noise value for TMT channel [3] | summed signal-to-noise value for TMT channel [4] | summed signal-to-noise value for TMT channel [5] | summed signal-to-noise value for TMT channel [6] | summed signal-to-noise value for TMT channel [7] | summed signal-to-noise value for TMT channel [8] | summed signal-to-noise value for TMT channel [9] | summed signal-to-noise value for TMT channel [10] | summed signal-to-noise value for TMT channel [11] | irsin/adipsin (TMT ratio) [12] | irsin/adipsin (TMT ratio) [13] | irsin/adipsin (TMT ratio) [14] | irsin/adipsin (TMT ratio) [15] | Substance |
| --- | --- | --- | --- | --- | --- | --- | --- | --- | --- | --- | --- | --- | --- | --- | --- |
| 105 | 449 | 54.4 | 250 | 148 | 17.4 | 17.1 | – | – | – | – | – | – | – | – | His-tag adipsin (R&D Systems, Cat. # AF1824-SP) |
| – | – | – | – | – | – | – | 427 | 1290 | 51.2 | 75.2 | 4.05 | 2.88 | 2.94 | 4.39 | His-tag recombinant irisin (irisin (human/mouse) with a C-terminal 10 his tag, produced in HEK293 cells) (from UniProt Q8K3V5 60-171) (ligand) |
